# According to paper PMC10786891, “Massively parallel profiling of RNA-targeting CRISPR-Cas13d”:
# T1: EsCas13d, nuclease-dead (Eubacterium siraeum, UniProt B0MS50, R295A;H300A;R849A;H854A)
# T1 sequence: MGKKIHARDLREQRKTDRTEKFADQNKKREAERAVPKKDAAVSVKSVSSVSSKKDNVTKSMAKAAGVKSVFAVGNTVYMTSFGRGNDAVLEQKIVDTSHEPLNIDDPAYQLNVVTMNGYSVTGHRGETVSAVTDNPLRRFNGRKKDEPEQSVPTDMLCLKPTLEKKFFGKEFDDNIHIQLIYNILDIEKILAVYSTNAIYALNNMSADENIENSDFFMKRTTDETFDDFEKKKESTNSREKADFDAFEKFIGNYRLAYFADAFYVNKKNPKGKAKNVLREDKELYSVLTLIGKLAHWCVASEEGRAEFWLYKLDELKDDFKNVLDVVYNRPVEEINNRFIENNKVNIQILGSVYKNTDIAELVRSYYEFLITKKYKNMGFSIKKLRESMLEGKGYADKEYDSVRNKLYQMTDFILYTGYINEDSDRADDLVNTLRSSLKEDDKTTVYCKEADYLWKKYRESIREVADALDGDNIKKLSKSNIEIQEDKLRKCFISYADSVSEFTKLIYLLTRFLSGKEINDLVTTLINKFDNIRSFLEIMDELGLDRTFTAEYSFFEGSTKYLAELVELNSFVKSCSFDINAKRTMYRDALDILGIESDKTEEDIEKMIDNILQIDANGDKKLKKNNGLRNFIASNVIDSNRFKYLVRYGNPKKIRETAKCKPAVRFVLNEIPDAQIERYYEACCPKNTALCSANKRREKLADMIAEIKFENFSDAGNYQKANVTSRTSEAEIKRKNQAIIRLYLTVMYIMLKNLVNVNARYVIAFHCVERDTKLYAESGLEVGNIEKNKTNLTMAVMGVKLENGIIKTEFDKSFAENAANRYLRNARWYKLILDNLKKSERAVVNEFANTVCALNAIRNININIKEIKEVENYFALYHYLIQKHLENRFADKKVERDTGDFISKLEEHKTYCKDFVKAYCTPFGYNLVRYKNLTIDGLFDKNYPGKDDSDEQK
# Target: T1, EsCas13d, nuclease-dead
# Assay: crRNA (strand 1, pre-loaded); Mg2+; 40 mM Tris-HCl pH 7.5, 150 mM NaCl, 6 mM MgCl2, 1 mM DTT, 0.1% Tween-20, 0.2 mg/ml BSA; 25 C; 10 min per concentration, then washed
# Settings: tags: His6-TwinStrep-SUMO cleaved; N-terminal SNAP kept (SNAP-Surface 488); label: 3' end held by stalled T7 RNA polymerase
row,Binder,Kd [nM]
1,"target 1 insA 3' of 22,insA 3' of 11 (mixed) RNA 1: CACCCGUGCAAAAAUGCAGGGGUCUAAAACUGAGCGGAUAACCUCUCUAUGG RNA 2: GGGAAUGGAUCCACAUCUACGAAUUCGUACACAUAGAGAGGUAUAUCCGCUCACCGAGAUCGGAAGAGCACACGU",17.6 ± 1
2,"target 1 insC 3' of 10,insU 3' of 7 (mixed) RNA 1: CACCCGUGCAAAAAUGCAGGGGUCUAAAACUGAGCGGAUAACCUCUCUAUGG RNA 2: GGGAAUGGAUCCACAUCUACGAAUUCGUACCAUAGAGAGGUUCAUCUCGCUCACCGAGAUCGGAAGAGCACACGU",19.2 ± 1.3
3,"target 1 insC 3' of 13,insG 3' of 8 (mixed) RNA 1: CACCCGUGCAAAAAUGCAGGGGUCUAAAACUGAGCGGAUAACCUCUCUAUGG RNA 2: GGGAAUGGAUCCACAUCUACGAAUUCGUACCAUAGAGAGCGUUAUGCCGCUCACCGAGAUCGGAAGAGCACACGU",13.9 ± 1.5
4,"target 1 insA 3' of 12,insA 3' of 6 (mixed) RNA 1: CACCCGUGCAAAAAUGCAGGGGUCUAAAACUGAGCGGAUAACCUCUCUAUGG RNA 2: GGGAAUGGAUCCACAUCUACGAAUUCGUACCAUAGAGAGGAUUAUCCAGCUCACCGAGAUCGGAAGAGCACACGU",37.3 ± 3
5,"target 1 insU 3' of 22,insU 3' of 2 (mixed) RNA 1: CACCCGUGCAAAAAUGCAGGGGUCUAAAACUGAGCGGAUAACCUCUCUAUGG RNA 2: GGGAAUGGAUCCACAUCUACGAAUUCGUACUCAUAGAGAGGUUAUCCGCUCUACCGAGAUCGGAAGAGCACACGU",35.9 ± 2.9
6,"target 1 C2G,U10A (mixed) RNA 1: CACCCGUGCAAAAAUGCAGGGGUCUAAAACUGAGCGGAUAACCUCUCUAUGG RNA 2: GGGAAUGGAUCCACAUCUACGAAUUCGUACCAUAGAGAGGUAAUCCGCUGACCGAGAUCGGAAGAGCACACGU",12.7 ± 1.3
7,target 1 insA 3' of 10 (mixed) RNA 1: CACCCGUGCAAAAAUGCAGGGGUCUAAAACUGAGCGGAUAACCUCUCUAUGG RNA 2: GGGAAUGGAUCCACAUCUACGAAUUCGUACCAUAGAGAGGUUAAUCCGCUCACCGAGAUCGGAAGAGCACACGU,12 ± 0.5
8,"target 1 U8A,G17A (mixed) RNA 1: CACCCGUGCAAAAAUGCAGGGGUCUAAAACUGAGCGGAUAACCUCUCUAUGG RNA 2: GGGAAUGGAUCCACAUCUACGAAUUCGUACCAUAAAGAGGUUAACCGCUCACCGAGAUCGGAAGAGCACACGU",92 ± 17
9,"target 1 insU 3' of 22,insC 3' of 13 (mixed) RNA 1: CACCCGUGCAAAAAUGCAGGGGUCUAAAACUGAGCGGAUAACCUCUCUAUGG RNA 2: GGGAAUGGAUCCACAUCUACGAAUUCGUACUCAUAGAGAGCGUUAUCCGCUCACCGAGAUCGGAAGAGCACACGU",88 ± 32
10,"target 1 insG 3' of 21,insG 3' of 2 (mixed) RNA 1: CACCCGUGCAAAAAUGCAGGGGUCUAAAACUGAGCGGAUAACCUCUCUAUGG RNA 2: GGGAAUGGAUCCACAUCUACGAAUUCGUACCGAUAGAGAGGUUAUCCGCUCGACCGAGAUCGGAAGAGCACACGU",61 ± 13
11,"target 1 del8,del15 (mixed) RNA 1: CACCCGUGCAAAAAUGCAGGGGUCUAAAACUGAGCGGAUAACCUCUCUAUGG RNA 2: GGGAAUGGAUCCACAUCUACGAAUUCGUACCAUAGAAGGUUACCGCUCACCGAGAUCGGAAGAGCACACGU",37.8 ± 3
12,"target 1 insG 3' of 22,insG 3' of 14 (mixed) RNA 1: CACCCGUGCAAAAAUGCAGGGGUCUAAAACUGAGCGGAUAACCUCUCUAUGG RNA 2: GGGAAUGGAUCCACAUCUACGAAUUCGUACGCAUAGAGAGGGUUAUCCGCUCACCGAGAUCGGAAGAGCACACGU",28.6 ± 3.5
13,"target 1 C6G,U11A (mixed) RNA 1: CACCCGUGCAAAAAUGCAGGGGUCUAAAACUGAGCGGAUAACCUCUCUAUGG RNA 2: GGGAAUGGAUCCACAUCUACGAAUUCGUACCAUAGAGAGGAUAUCGGCUCACCGAGAUCGGAAGAGCACACGU",25.4 ± 0.9
14,"target 1 U8G,U19G (mixed) RNA 1: CACCCGUGCAAAAAUGCAGGGGUCUAAAACUGAGCGGAUAACCUCUCUAUGG RNA 2: GGGAAUGGAUCCACAUCUACGAAUUCGUACCAGAGAGAGGUUAGCCGCUCACCGAGAUCGGAAGAGCACACGU",79 ± 15
15,"target 1 A9U,A20C (mixed) RNA 1: CACCCGUGCAAAAAUGCAGGGGUCUAAAACUGAGCGGAUAACCUCUCUAUGG RNA 2: GGGAAUGGAUCCACAUCUACGAAUUCGUACCCUAGAGAGGUUUUCCGCUCACCGAGAUCGGAAGAGCACACGU",~53
16,"target 1 C7A,C22A (mixed) RNA 1: CACCCGUGCAAAAAUGCAGGGGUCUAAAACUGAGCGGAUAACCUCUCUAUGG RNA 2: GGGAAUGGAUCCACAUCUACGAAUUCGUAACAUAGAGAGGUUAUACGCUCACCGAGAUCGGAAGAGCACACGU",12.1 ± 0.5
17,"target 1 insU 3' of 15,insA 3' of 5 (mixed) RNA 1: CACCCGUGCAAAAAUGCAGGGGUCUAAAACUGAGCGGAUAACCUCUCUAUGG RNA 2: GGGAAUGGAUCCACAUCUACGAAUUCGUACCAUAGAGUAGGUUAUCCGACUCACCGAGAUCGGAAGAGCACACGU",21.7 ± 2.1
18,"target 1 insU 3' of 4,insG 3' of 4 (mixed) RNA 1: CACCCGUGCAAAAAUGCAGGGGUCUAAAACUGAGCGGAUAACCUCUCUAUGG RNA 2: GGGAAUGGAUCCACAUCUACGAAUUCGUACCAUAGAGAGGUUAUCCGCUGUCACCGAGAUCGGAAGAGCACACGU",8.9 ± 0.8
19,"target 1 G12C,G15U (mixed) RNA 1: CACCCGUGCAAAAAUGCAGGGGUCUAAAACUGAGCGGAUAACCUCUCUAUGG RNA 2: GGGAAUGGAUCCACAUCUACGAAUUCGUACCAUAGAUAGCUUAUCCGCUCACCGAGAUCGGAAGAGCACACGU",~60
20,"target 1 U3G,U11A (mixed) RNA 1: CACCCGUGCAAAAAUGCAGGGGUCUAAAACUGAGCGGAUAACCUCUCUAUGG RNA 2: GGGAAUGGAUCCACAUCUACGAAUUCGUACCAUAGAGAGGAUAUCCGCGCACCGAGAUCGGAAGAGCACACGU",14.2 ± 1.3
21,"target 1 insG 3' of 10,insC 3' of 3 (mixed) RNA 1: CACCCGUGCAAAAAUGCAGGGGUCUAAAACUGAGCGGAUAACCUCUCUAUGG RNA 2: GGGAAUGGAUCCACAUCUACGAAUUCGUACCAUAGAGAGGUUGAUCCGCUCCACCGAGAUCGGAAGAGCACACGU",26.7 ± 1.9
22,"target 1 insA 3' of 19,insG 3' of 14 (mixed) RNA 1: CACCCGUGCAAAAAUGCAGGGGUCUAAAACUGAGCGGAUAACCUCUCUAUGG RNA 2: GGGAAUGGAUCCACAUCUACGAAUUCGUACCAUAAGAGAGGGUUAUCCGCUCACCGAGAUCGGAAGAGCACACGU",28.6 ± 1.5
23,"target 1 insA 3' of 21,insG 3' of 10 (mixed) RNA 1: CACCCGUGCAAAAAUGCAGGGGUCUAAAACUGAGCGGAUAACCUCUCUAUGG RNA 2: GGGAAUGGAUCCACAUCUACGAAUUCGUACCAAUAGAGAGGUUGAUCCGCUCACCGAGAUCGGAAGAGCACACGU",59 ± 24
24,"target 1 G5C,U8G (mixed) RNA 1: CACCCGUGCAAAAAUGCAGGGGUCUAAAACUGAGCGGAUAACCUCUCUAUGG RNA 2: GGGAAUGGAUCCACAUCUACGAAUUCGUACCAUAGAGAGGUUAGCCCCUCACCGAGAUCGGAAGAGCACACGU",35 ± 4
25,"target 1 insU 3' of 22,insG 3' of 19 (mixed) RNA 1: CACCCGUGCAAAAAUGCAGGGGUCUAAAACUGAGCGGAUAACCUCUCUAUGG RNA 2: GGGAAUGGAUCCACAUCUACGAAUUCGUACUCAUGAGAGAGGUUAUCCGCUCACCGAGAUCGGAAGAGCACACGU",86 ± 19
26,"target 1 insA 3' of 11,insC 3' of 10 (mixed) RNA 1: CACCCGUGCAAAAAUGCAGGGGUCUAAAACUGAGCGGAUAACCUCUCUAUGG RNA 2: GGGAAUGGAUCCACAUCUACGAAUUCGUACCAUAGAGAGGUAUCAUCCGCUCACCGAGAUCGGAAGAGCACACGU",14.6 ± 0.7
27,"target 1 U3G,C21U (mixed) RNA 1: CACCCGUGCAAAAAUGCAGGGGUCUAAAACUGAGCGGAUAACCUCUCUAUGG RNA 2: GGGAAUGGAUCCACAUCUACGAAUUCGUACUAUAGAGAGGUUAUCCGCGCACCGAGAUCGGAAGAGCACACGU",11 ± 1.2
28,"target 1 del7,del20 (mixed) RNA 1: CACCCGUGCAAAAAUGCAGGGGUCUAAAACUGAGCGGAUAACCUCUCUAUGG RNA 2: GGGAAUGGAUCCACAUCUACGAAUUCGUACCUAGAGAGGUUAUCGCUCACCGAGAUCGGAAGAGCACACGU",39 ± 4
